The source of these data is patent publication US7129053 (DAKOCYTOMATION DENMARK A S, dated 2006).

The assay deals with T1, H. pylori catalase (Helicobacter pylori, UniProt P77872 1-505).
T1 construct: mature; also called katalase; immunizing antigen
T1 sequence (looked up): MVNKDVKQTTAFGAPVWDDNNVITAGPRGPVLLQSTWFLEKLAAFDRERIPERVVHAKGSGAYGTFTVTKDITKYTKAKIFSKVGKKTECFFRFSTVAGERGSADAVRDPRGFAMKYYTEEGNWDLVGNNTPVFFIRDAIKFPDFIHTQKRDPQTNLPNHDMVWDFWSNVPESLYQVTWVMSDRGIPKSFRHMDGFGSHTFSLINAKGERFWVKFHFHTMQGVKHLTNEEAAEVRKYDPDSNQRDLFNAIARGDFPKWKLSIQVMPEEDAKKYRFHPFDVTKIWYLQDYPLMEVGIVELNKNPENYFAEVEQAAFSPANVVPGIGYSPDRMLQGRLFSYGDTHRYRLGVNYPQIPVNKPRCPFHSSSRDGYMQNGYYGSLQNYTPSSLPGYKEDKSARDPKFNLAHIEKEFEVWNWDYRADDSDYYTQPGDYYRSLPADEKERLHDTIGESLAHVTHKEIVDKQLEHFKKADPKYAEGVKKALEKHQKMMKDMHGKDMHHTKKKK
The assay can be described thus: SPR (BIAcore), catalase amine-coupled on CM5 chip, antibody 20-670 nM in flow. The protocol: Catalase was Immobilized through amine coupling on the dextrane matrix of the BIAcore CM5 sensor chip. For the activation of the dextrane matrix 45 μl of a 1:1-mixture of 0.05 M N-hydroxysuccinimide (NHS) and 0.2 M 1-ethyl-3-3-dimethylaminopropyl)carbodiimide (EDC) solution was conducted over the sensor chip at a flow rate of 5 μl/min. Then, the catalase (35 μl; 50 μg/ml in 10 mM sodium acetate, pH 5.0) were bound to the dextrane matrix. The remaining NHS ester was deactivated with 1 M ethanolamine (35 μl). Catalase that was not covalently bound to the dextrane matrix was removed by regenerating the sensor chip with HCl (10 mM; 15 μl).
By adding the catalase-specific monoclonal antibodies, these were made react with immobilized catalase and the mass attachment to the detector was measured. Antibody solutions in different concentrations ranging from 20 to 670 nM were used. They were injected via the catalase immobilized on the sensor chip at a flow rate of 25 μl/min each.
The values for the rate constants of the adsorption ($kon$) and desorption ($koff$) of the antibody could be calculated (BIAevaluation software 3.0).

B1: monoclonal antibody HP25.2m/2H10 (antibody, IgG2a, V domains shown)
VH: VQLLEQPGAELAKPGASVKMSCKASGYTFTNYWIHWVKQRPGQGLKWIGYINPATGSTSYNQDFQDRATLTADKSSTTAYMQLTSLTSEDSSVYYCAREGYDGFDSWGQGTTLTVSS
VL: ELVLTQSPAIMSASPGEKVTMTCSASSSVNYMYWYQQKSGTSPKRWIYDTSKLASGVPARFSGSGSGTSYSLTLSSMEAEDAATYYCQQWSSNPYTFGGGTKLEIK
notes: also called HP25.2m/2H10 (K10); HP25.2m/2Hallin (K10)
Regarding B1, the Kd stood at 0.271 nM, the off-rate constant (koff) is 3.9e-05 s⁻¹ and the association rate constant (kon) was 144000 M⁻¹ s⁻¹.

B2: monoclonal antibody HP25.6m/1B5 (antibody, IgG1, V domains shown)
VH: EVQLQQSGAELVKPGASVKLSCTSSGFNIKDTYVHWMKQRPEQGLEWIGKIDPANGKTKYDPIFQAKATMTADASSNTAYLQLSSLTSEDTAVYYCALPIYYASSWFAYWGQGTLVTVSA
VL: DIVMTQSHKFMSTSVGDRVSITCKASQDVGTSVAWYQQKPGHSPKLLIYWTSTRHTGVPDRFTGSGSGTDFILTISNVQSEDLADYFCQQYSSSPTFGGGAKVEIK
notes: also called HP25.6m1/1B5
Take B2: binding was put at a Kd of 0.681 nM, the dissociation rate constant (koff) turned out to be 3.86e-05 s⁻¹ and the kon is 56700 M⁻¹ s⁻¹.
